Test results taken from patent publication US20190119357A1, “MESSENGER RIBONUCLEIC ACIDS FOR THE PRODUCTION OF INTRACELLULAR BINDING POLYPEPTIDES AND METHODS OF USE THEREOF” (ModernaTX, Inc., priority 2015, published 2019).
“Also recorded” adds a separate entry of the source.

Columns and labels:
Hep3B cells [1] = test: Effect of insertion site position on apoptotic potency, YOYO3; type: cell-based; settings: Hep3B cells transfected with constructs
Method: BH3 domain was inserted into either the N-terminal insertion site, the loop 1 insertion site or the loop 2 insertion site of the SQT scaffold polypeptide. The mRNA sequences of these SQT-BID-BH3 constructs, with a FLAG epitope tag, are shown in SEQ ID NOs: 43-45, respectively. Corresponding mRNA sequences without the FLAG tag are shown in SEQ ID NOs: 46-48. Hep3B cells were transfected with the constructs and the apoptotic ability of the constructs was assessed using YOYO3 to determine cell death, as described above.

Hep3B cells [2] = test: Anti-MCL1 mmRNA construct combined with SQT-PUMA-BH3, YOYO-3; type: cell-based; settings: 50 ng anti-MCL1 mRNA, 1.6 ng SQT-PUMA-BH3, L2K, 48 hours
Method: The anti-MCL1 mmRNA construct was tested for synergistic killing when combined with SQT-PUMA-BH3 in Hep3B cells. 20,000 Hep3B cells were seeded per well in 96-well plates. Each well was transfected with (a) 1.6 ng SQT-empty (“SQT-dummy”) or SQT-PUMA-BH3; and (b) 50 ng or 12.5 ng anti-MCL1 mRNA. Transfections of mRNA were done with Lipofectamine 2000 (L2K). After 48 hours, apoptosis measurements performed using YOYO-3 viability dye in an Incucyte instrument.

Hep3B cells [3] = test: Cell death by YOYO-3 with MC3-formulated LNPs; type: cell-based
Method: The efficacy of mRNAs encoding SQT-BH3 constructs in inducing cell death was tested both in hepatocellular carcinoma cell lines as well as in primary hepatocytes using lipid nanoparticle (LNP)-formulated constructs. Hep3B cells were treated with varying doses (0.78 ng to 50 ng) of MC3-formulated LNPs in the presence of YOYO-3 (Life Technologies), a DNA dye that is taken up preferentially by dead cells that is used to measure the extent of cell death. MC3 lipid nanoparticles included MC3 50%, DSPC 10%, Cholesterol 38.5%, PEG-DMG 1.5%, N:P ˜5.5.

Hep3B cells [4] = test: Efficiency of cell killing at low mRNA dose and dose-response; type: cell-based
[5] = test system: human hepatocellular carcinoma (Hep G2) cells; test: Cell death and morphology after mRNA transfection; type: cell-based
Text: A representative graph of the apoptotic ability of the SQT-BH3 constructs is shown in FIG. 2, showing the cell killing capacity of the SQT-BH3 constructs in Hep G2 cells.

HepG2 cells = test: Cell death by YOYO3 with MC3 LNPs; type: cell-based
BCL-XL = molecular target: T1, BCL-XL (Homo sapiens, UniProt Q07817); test: Co-immunoprecipitation after mRNA transfection; type: binding; settings: within two hours after mRNA transfection
T1 construct: endogenous in cells; host or cells: cells transfected with SQT-BH3 mRNA (HeLa by context)

MCL-1 = molecular target: T2, MCL-1 (Homo sapiens, UniProt Q07820); test: Co-immunoprecipitation in lysates of transfected HeLa cells; type: binding; settings: lysates of HeLa cells transfected with mRNAs
T2 construct: performed in lysates of HeLa cells transfected with mRNAs encoding SQT-BH3 constructs; endogenous in cells; host or cells: HeLa

HeLa cells [6] = test: Efficiency of cell killing at low mRNA dose; type: cell-based; settings: approximately 0.78 ng mRNA
[7] = test system: human melanoma cells (A375); test: Cell death after mRNA transfection; type: cell-based
HeLa cells [8] = test: PARP-1 cleavage by SDS-PAGE and Western blotting after transfection of mRNAs encoding SQT-BH3 constructs; type: cell-based; settings: from anti-FLAG and anti-GFP Western blotting
Text: The cleavage of PARP-1 was detected by the appearance of a faster-migrating band and concomitant loss of the full-length band by SDS-PAGE and Western blotting. Western blotting with anti-actin antibodies served as a loading control.

BCL-2 = molecular target: T3, BCL-2 (Homo sapiens, UniProt P10415); test: Co-immunoprecipitation after mRNA transfection; type: binding; settings: within two hours after mRNA transfection
T3 construct: endogenous in cells; host or cells: cells transfected with SQT-BH3 mRNA (HeLa by context)

primary hepatocytes = test: Apoptosis induction by MC3 LNP-formulated mRNAs in primary hepatocytes cultured in vitro; type: cell-based
Hep3B cells [9] = test: Co-transfection of SQT-Bim-BH3 in MC3 LNPs with Bcl-2-like trap mRNA constructs, YOYO-3; type: cell-based; settings: 272 picomolar SQT-Bim-BH3 in MC3 LNPs, increasing amounts of trap mRNA, 12 hour time point
Text: YOYO-3 viability dye was used to assess apoptosis of cells.

T1 sequence (Q07817 whole entry): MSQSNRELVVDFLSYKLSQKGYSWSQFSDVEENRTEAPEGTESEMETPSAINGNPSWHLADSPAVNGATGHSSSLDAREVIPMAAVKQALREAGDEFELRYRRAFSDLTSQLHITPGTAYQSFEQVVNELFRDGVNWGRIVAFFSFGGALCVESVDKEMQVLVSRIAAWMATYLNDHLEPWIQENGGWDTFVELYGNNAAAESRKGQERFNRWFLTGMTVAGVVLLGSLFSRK
T3 sequence (P10415 whole entry): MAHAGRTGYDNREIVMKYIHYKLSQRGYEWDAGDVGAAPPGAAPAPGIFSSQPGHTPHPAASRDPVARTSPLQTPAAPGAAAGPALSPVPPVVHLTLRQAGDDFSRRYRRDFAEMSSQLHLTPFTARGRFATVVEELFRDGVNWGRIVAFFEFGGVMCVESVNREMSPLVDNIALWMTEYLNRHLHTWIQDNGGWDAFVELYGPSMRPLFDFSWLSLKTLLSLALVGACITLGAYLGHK
T2 sequence (Q07820 whole entry): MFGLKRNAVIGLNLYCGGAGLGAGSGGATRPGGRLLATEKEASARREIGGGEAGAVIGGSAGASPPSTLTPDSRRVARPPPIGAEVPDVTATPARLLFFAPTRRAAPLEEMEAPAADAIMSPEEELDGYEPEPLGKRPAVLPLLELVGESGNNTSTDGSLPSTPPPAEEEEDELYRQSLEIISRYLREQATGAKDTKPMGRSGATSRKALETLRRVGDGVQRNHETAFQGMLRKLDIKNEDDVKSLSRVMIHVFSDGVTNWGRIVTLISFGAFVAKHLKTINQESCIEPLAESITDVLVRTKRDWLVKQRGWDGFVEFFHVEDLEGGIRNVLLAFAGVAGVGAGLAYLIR

B1: SQT(nt)BID-BH3: mRNA (SEQ ID NO: 43) encoding SQT with a single BID BH3 domain in the N-terminal insertion site (nucleic acid, listed as Homo sapiens)
chain: ATGATACCCAGACAAGAGGACATCATTCGTAACATCGCGCGACACCTGGCCCAGGTGGGGGACTCCATGGATCGATCAATCCCCCCTGGCTTATCCGAAGCTAAGCCAGCCACCCCTGAGATCCAAGAAATCGTCGACAAGGTCAAGCCCCAACTTGAAGAGAAAACTAATGAAACTTATGGTAAGCTCGAAGCCGTGCAATACAAGACTCAGGTCCTGGCGTCTACAAATTATTACATCAAGGTGAGGGCCGGGGACAATAAGTATATGCATCTGAAAGTCTTCAATGGCCCCCCTGGACAAAACGCAGATCGGGTGCTCACAGGATACCAGGTCGATAAAAATAAAGATGACGAACTTACTGGGTTTGATTATAAAGATGATGATGACAAG
modifications: (1)..(393) SQT(nt)BID-BH3 mRNA sequence with FLAG epitope tag
apoptotic potency (YOYO3 cell death) (Hep3B cells [1]): more potent than the SQT-BID-BH3 constructs with the BH3 domain inserted at either the loop 1 insertion site or the loop 2 insertion site

B2: SQT.(nt)Mcl1.BH3.cv5: anti-MCL1 mmRNA construct, ORF amino acid SEQ ID NO: 108, nucleotide SEQ ID NO: 112, v5 tag (nucleic acid)
chain: ATGATCCCTAGGAAGGCCCTGGAGACCCTGAGGAGAGTGGGCGACGGAGTGCAGAGGAACCACGAGACCGCCTTCGGCCTGAGCGAGGCAAAGCCAGCAACACCCGAGATCCAGGAGATCGTGGATAAGGTGAAGCCCCAGCTGGAGGAGAAGACCAATGAGACATACGGCAAGCTGGAGGCCGTGCAGTATAAGACCCAGGTGCTGGCCTCCACAAACTACTATATCAAGGTGCGGGCCGGCGACAATAAGTACATGCACCTGAAGGTGTTCAACGGACCACCTGGACAGAATGCAGACAGGGTGCTGACCGGCTATCAGGTGGATAAGAACAAGGACGATGAGCTGACAGGCTTTGGCAAGCCAATCCCCAATCCTCTGCTGGGCCTGGATTCTACA
modifications: V5 tag; Synthetic SQT.(nt)Mcl1.BH3.cv5
apoptosis (YOYO-3) in combination with SQT-PUMA-BH3 (Hep3B cells [2]; listed as anti-MCL1 construct): synergistic anti-apoptotic effect in combination with SQT-PUMA-BH3 | apoptosis (YOYO-3) in combination with SQT-PUMA-BH3 (Hep3B cells [2]; listed as anti-MCL1 mRNA construct): synergistic pro-apoptotic effects

B3: SQT-Bim-BH3: mRNA (SEQ ID NO: 50, FLAG) encoding SQT scaffold with Bim BH3 domain in N-terminus (nucleic acid)
chain: ATGATCCCAAGAGACATGCGCCCCGAAATTTGGATCGCCCAGGAGCTCAGACGCATCGGAGATGAATTCAACGCATACTACGCTCGGCGGGGACTCTCAGAAGCGAAGCCTGCCACCCCCGAAATCCAGGAAATCGTCGACAAGGTCAAGCCGCAGCTTGAGGAAAAGACCAACGAGACTTACGGAAAACTGGAGGCCGTGCAGTATAAGACCCAAGTGTTGGCCTCCACCAACTACTACATTAAGGTCCGCGCCGGCGATAACAAGTACATGCACCTGAAGGTGTTCAATGGTCCTCCGGGACAGAACGCGGACAGGGTGCTGACTGGCTACCAAGTGGACAAGAACAAGGACGACGAGCTGACGGGCTTCGACTACAAGGATGATGATGACAAA
modifications: FLAG tag; Synthetic SQT-BIM-BH3 mRNA sequence with FLAG epitope tag
cell killing (YOYO-3) (Hep3B cells [3]; four-fold lower concentration): induced cell killing in Hep3B cells more efficiently than SQT-PUMA-BH3 | apoptosis and cell death (YOYO-3) (Hep3B cells [3]; relatively high concentration): both induced apoptosis and cell death; also recorded: kills Hep3B cells at higher concentrations | efficiency of cell killing (Hep3B cells [4]; Hep3B cells, approximately 0.78 ng mRNA): killed both HeLa cells and Hep3B cells with greater efficiency than SQT-PUMA-BH3 | cell killing, dose-response curve (Hep3B cells [4]; Hep3B, 12 hours after transfection, L2K lipid nanoparticles): more efficient cell killing by SQT-Bim-BH3 at low doses | cell death [5]: caused rapid cell death almost immediately following transfection; also recorded: underwent cell death almost immediately following transfection | cell morphology [5]: rounded-up cell morphology that is characteristic of apoptotic cells | cell death (YOYO3 staining) (HepG2 cells): lead to cell death; also recorded: kills HepG2 cells | efficacy and timing of cell death, comparison (HepG2 cells): induced cell death with an increase in both efficacy and timing compared to SQT-PUMA-BH3 | interaction with BCL-XL by co-immunoprecipitation (BCL-XL): able interact | co-immunoprecipitation of MCL-1 (MCL-1): able to co-immunoprecipitate | efficiency of cell killing (HeLa cells [6]): killed both HeLa cells and Hep3B cells with greater efficiency than SQT-PUMA-BH3 | cell death [7]: caused rapid cell death almost immediately following transfection | cell death of transfected cells (HeLa cells [8]): underwent cell death | interaction with BCL-2 by co-immunoprecipitation (BCL-2): to a lesser extent | PARP-1 cleavage (primary hepatocytes; LNPs): also induced PARP-1 cleavage in primary hepatocytes | apoptosis (YOYO-3 dye uptake and fluorescence) as a function of time (primary hepatocytes; MC3-LNP-formulated): induce apoptosis

B4: Bcl-2 (D34A) del.C32: Bcl-2-like trap mRNA, SEQ ID NO: 82, FLAG tag (nucleic acid)
chain: ATGGCACACGCTGGTAGGACAGGCTACGACAACCGTGAGATTGTGATGAAGTATATTCACTATAAGCTGTCTCAAAGAGGCTACGAATGGGATGCGGGGGCCGTCGGGGCTGCCCCACCTGGTGCCGCCCCGGCTCCTGGGATTTTCTCTTCCCAGCCGGGACATACCCCTCATCCTGCCGCTTCTAGGGACCCTGTGGCAAGAACATCCCCTCTACAGACCCCTGCCGCCCCAGGTGCGGCTGCTGGCCCAGCGTTAAGTCCCGTTCCACCAGTCGTGCACCTTACCCTTAGGCAAGCGGGCGACGATTTCTCTAGGCGATACCGGAGGGACTTTGCCGAAATGTCATCACAGCTCCATCTTACTCCATTTACTGCCCGTGGCAGATTCGCCACCGTAGTGGAAGAACTCTTTCGAGACGGCGTAAATTGGGGGAGGATCGTGGCATTTTTCGAATTTGGAGGGGTTATGTGTGTGGAGAGCGTGAATCGGGAAATGTCTCCTCTGGTTGACAATATTGCCTTGTGGATGACCGAATATCTTAACAGGCACCTCCACACCTGGATTCAAGATAATGGTGGATGGGATGCGTTTGTGGAACTTTATGGGCCTTCAATGCGTGACTATAAGGACGACGACGACAAA
modifications: FLAG tag; Synthetic Bcl-2(D34A)del.C32 BH3 mRNA sequence with FLAG epitope tag
protection from apoptosis by SQT-Bim-BH3 (YOYO-3) (Hep3B cells [9]): all of the tested trap constructs except Bcl-2 (D34A) del.C32 were able to protect
